Data reported in patent publication US20240197877A1 (published 2024).
Substitutions are numbered along the chain they refer to.

T1: MYO1G (HA-2 SNP; MYO1G(M) variant) peptide on HLA-A*02:01 (human)
T1 peptide: YIGEVLVSM

B1: HA2-MJ13-SP43 (TCR, V domains shown)
Valpha: QKEVEQNSGPLSVPEGAIASLNCTYSDRGSQSFFWYRQYSGKSPELIMFIYSNGDKEDGRFTAQLNKASQYVSLLIRDSQPSDSATYLCAVKGAGYSTLTFGKGTMLLVSP
Vbeta: NAGVTQTPKFQVLKTGQSMTLQCAQDMNHEYMSWYRQDPGMGLRLIHYSVGAGITDQGEVPNGYNVSRSTTEDFPLRLLSAAPSQTSVYFCASSDGGALAYFGPGTRLTVL
B2: HA2-MJ14-SP4 (TCR, V domains shown)
Valpha: B1 Valpha with K92R, G93R, A94S
Vbeta: NAGVTQTPKFQVLKTGQSMTLQCAQDMNHEYMSWYRQDPGMGLRLIHYSVGAGITDQGEVPNGYNVSRSTTEDFPLRLLSAAPSQTSVYFCASSLGAEAFFGQGTRLTVV

Molecular target: T1, MYO1G (HA-2 SNP; MYO1G(M) variant) …
Test: multimer staining

| Binder | binding result |
| --- | --- |
| B1 | no recognition |
| B2 | no recognition |
